Reference: PMC4627068 (Nucleic Acids Research, 2015)

Key:
[1] = target: β' subunit of Bacillus subtilis RNAP-σ^A (Bacillus subtilis, UniProt P37871 1-1199); assay: far-Western, overlay or dot blot
[2] = target: the molecule itself; assay: far-Western, overlay or dot blot

β' subunit of Bacillus subtilis RNAP-σ^A, sequence (P37871 whole entry): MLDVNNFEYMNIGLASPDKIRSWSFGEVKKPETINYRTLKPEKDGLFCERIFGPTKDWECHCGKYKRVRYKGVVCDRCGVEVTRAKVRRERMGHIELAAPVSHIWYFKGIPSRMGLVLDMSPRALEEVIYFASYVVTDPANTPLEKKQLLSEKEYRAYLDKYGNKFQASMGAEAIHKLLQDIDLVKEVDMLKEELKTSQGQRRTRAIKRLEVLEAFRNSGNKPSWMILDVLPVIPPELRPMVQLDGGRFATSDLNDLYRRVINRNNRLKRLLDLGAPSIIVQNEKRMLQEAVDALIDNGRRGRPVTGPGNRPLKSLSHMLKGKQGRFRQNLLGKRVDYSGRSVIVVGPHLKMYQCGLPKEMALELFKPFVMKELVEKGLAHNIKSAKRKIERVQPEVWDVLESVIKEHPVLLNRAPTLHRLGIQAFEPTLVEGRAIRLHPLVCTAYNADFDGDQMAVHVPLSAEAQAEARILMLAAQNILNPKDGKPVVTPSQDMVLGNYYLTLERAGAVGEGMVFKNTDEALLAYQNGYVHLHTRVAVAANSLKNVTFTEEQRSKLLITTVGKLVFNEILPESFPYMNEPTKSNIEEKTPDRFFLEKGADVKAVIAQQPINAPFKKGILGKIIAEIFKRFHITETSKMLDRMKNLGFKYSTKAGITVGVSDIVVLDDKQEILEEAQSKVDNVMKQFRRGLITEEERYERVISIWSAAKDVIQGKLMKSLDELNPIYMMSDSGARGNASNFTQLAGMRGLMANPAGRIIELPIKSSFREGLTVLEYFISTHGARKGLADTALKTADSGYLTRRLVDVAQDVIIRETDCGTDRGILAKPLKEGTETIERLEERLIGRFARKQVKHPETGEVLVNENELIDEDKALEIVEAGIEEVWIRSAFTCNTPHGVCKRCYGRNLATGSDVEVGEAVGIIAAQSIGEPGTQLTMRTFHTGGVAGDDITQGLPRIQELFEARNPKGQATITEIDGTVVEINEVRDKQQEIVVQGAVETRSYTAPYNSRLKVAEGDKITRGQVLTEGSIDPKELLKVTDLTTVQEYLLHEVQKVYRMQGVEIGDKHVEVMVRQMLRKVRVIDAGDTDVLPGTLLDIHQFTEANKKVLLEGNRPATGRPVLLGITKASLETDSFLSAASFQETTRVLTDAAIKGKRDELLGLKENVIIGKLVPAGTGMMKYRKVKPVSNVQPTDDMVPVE

B1: ω2 (homodimeric form of the plasmid pSM19035 ω protein) (natural protein, Streptococcus pyogenes, UniProt Q57468 1-71, looked up)
chain: MIVGNLGAQKAKRNDTPISAKKDIMGDKTVRVRADLHHIIKIETAKNGGNVKEVMDQALEEYIRKYLPDKL
Which results are given for B1?
binding result [1]: binds; binding result [2]: binds
